# Data as given in US7026443.
# Biological target: HLA-A*6802 (human)
# Test: competition with 125I-labelled standard peptide on purified HLA, gel filtration
substance,measurement,value
HPV16 E7 86 TLGIVCPI (peptide),binding affinity ratio (IC50 of standard peptide / IC50 of test peptide),0.0047
